This is an account of results in patent publication US20240317868A1 (Boehringer Ingelheim, published 2024).

The target of the experiment is T1, human IL1RAP (human, UniProt Q9NPH3 21-367, limits assumed, biotinylated in the ELISA screens (site not stated)).
T1 construct: also called huIL1RAP; IL1RAP antigen
T1 sequence (looked up): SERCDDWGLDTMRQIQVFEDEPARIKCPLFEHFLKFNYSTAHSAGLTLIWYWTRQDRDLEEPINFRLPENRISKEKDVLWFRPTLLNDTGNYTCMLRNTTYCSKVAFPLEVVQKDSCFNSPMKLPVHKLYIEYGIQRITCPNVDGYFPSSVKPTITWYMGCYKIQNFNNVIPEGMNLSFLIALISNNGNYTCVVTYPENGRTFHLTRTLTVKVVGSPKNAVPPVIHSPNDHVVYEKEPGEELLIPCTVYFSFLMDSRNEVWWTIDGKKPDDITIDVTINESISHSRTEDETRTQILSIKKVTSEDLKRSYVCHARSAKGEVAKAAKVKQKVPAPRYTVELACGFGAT
As to the kind of experiment: hKD, method not stated.

B1: CAN04 (antibody, V domains shown)
VH: QVQLQQSGPELLKPGASVKISCKASGYAFSSSWMNWVKQRPGKGLEWIGRIYPGDGNTHYSGKFKGKATLTADKSSSIAYMQLSSLTSEDSAVYFCGEGYLDPMDYWGQGTSVTVSS
VL: DIQMTQTTSSLSASLGDRVTISCSASQGINNYLNWYQQKPDGTVKLLIHYTSGLHAGVPSRFSGSGSGTDYSLTISNLEPEDVATYYCQQYSILPWTFGGGTKLEIKR
For orientation: Kd means the equilibrium constant for the complex coming apart. As to B1, the Kd was determined as 0.2 nM. This lies in the sub-nanomolar range.
